Results: patent US11389516B2, “Composition comprising UNE-L domain of leucyl-tRNA synthetase as effective ingredient for augmenting muscle” (GACHON UNIVERSITY OF INDUSTRY-ACADEMIC COOPERATION …, priority 2017, dated 2022)
Each block holds one molecule with its values, some of them ahead of it.

How the values were obtained:
[1] = test system: S6K1 phosphorylation (mTORC1 activation); test: Amino acid mediated mTORC1 activation through S6K1 phosphorylation, Western blotting, HEK293 cells treated with SAR405; assay type: cell-based
Experimental: Particularly, HEK293 cells were transducted with lentivirus expressing LRS shRNA (shLRS) or scrambled sequence shRNA (control). The cells were cultured in DMEM supplemented with 10% fetal bovine serum (FBS) in a 37° C., 5% CO2 incubator for 3 days. As for the LRS shRNA, shLRS-1 (TRCN0000290440) or shLRS-2 (TRCN0000290511) was used. As for the scrambled sequence shRNA, the sRNA previously described (Yoon, et al., J Cell Biol., 2011 195(3); 435-447) was used. Lentivirus packaging and transduction were performed according to the methods described in the following paper (Sun, et al., Proc Natl Acad Sci USA., 2008, 105(24); 8286-8291). The simultaneous expression of Vps15 and Vps34 was necessary for the stability and activity of Vps34, so the cells were transfected with bicistronic Myc-Vps34/V5-Vps15 plasmid (Yan, et al., Biochem J., 2009, 417(3); 747-755), followed by culture in the absence of FBS for overnight. On the next day, the cells were cultured in DMEM without leucine or amino acid for 2 hours, followed by stimulating the cells with 0.8 mM leucine or amino acids at the same concentration as DMEM for 30 minutes. The cell lysate was analyzed by Western blotting according to the conventional method. The intensity of the bands obtained by Western blotting was quantified by measuring the X ray film image density using Image J software.
HEK293 cells were treated with SAR405 (APExBIO, US), a Vps34 specific inhibitor, and then amino acid mediated mTORC1 activation was investigated through S6K1 phosphorylation. […] Western blotting was performed by stimulating cells with amino acids by the same manner as described in Example <1-1> except that HEK293 cells were treated with SAR405 at the concentration of 3 μM and co-transfected with Myc-LRS and Myc-S6K1. At this time, the cells untreated with SAR405 were used as the control. All the quantification data was presented as mean±standard deviation of the values obtained from at least three independent experiments performed separately. Statistical significance was analyzed by student's t-test (*p≤0.05. **p≤0.01).

[2] = biological target: T1, Vps34 (Mus musculus, UniProt Q6PF93); test: In vitro Vps34 lipid kinase assay on Vps34 immune complex from MEF cells with added purified GST protein; assay type: biochemical; details: FIG. 7
T1 construct: endogenous in cells; host or cells: MEF cells
T1 sequence (Q6PF93 whole entry): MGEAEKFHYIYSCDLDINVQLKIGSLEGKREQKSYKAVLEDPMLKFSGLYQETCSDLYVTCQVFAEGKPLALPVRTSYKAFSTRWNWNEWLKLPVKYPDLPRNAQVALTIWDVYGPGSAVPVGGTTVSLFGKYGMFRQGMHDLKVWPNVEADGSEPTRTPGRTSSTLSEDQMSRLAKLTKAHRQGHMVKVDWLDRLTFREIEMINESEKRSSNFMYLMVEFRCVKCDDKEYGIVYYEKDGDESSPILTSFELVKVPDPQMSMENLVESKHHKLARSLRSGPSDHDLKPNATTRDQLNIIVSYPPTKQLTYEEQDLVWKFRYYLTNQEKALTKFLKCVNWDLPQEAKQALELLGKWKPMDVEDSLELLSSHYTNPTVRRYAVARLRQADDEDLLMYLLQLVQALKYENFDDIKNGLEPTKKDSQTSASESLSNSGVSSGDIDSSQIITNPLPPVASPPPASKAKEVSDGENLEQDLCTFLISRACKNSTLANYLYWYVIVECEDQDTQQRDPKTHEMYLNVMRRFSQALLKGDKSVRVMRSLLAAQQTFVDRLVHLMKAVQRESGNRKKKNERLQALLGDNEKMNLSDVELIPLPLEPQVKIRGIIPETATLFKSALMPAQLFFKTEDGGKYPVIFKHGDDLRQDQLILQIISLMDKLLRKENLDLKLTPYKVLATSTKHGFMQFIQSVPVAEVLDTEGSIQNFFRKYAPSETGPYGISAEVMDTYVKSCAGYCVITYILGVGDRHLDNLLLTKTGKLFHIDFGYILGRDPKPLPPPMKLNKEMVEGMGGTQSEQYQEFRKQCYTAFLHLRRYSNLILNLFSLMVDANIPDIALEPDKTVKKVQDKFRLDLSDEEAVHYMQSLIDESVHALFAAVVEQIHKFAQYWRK
T1 sequence (Q8VD65 whole entry partner): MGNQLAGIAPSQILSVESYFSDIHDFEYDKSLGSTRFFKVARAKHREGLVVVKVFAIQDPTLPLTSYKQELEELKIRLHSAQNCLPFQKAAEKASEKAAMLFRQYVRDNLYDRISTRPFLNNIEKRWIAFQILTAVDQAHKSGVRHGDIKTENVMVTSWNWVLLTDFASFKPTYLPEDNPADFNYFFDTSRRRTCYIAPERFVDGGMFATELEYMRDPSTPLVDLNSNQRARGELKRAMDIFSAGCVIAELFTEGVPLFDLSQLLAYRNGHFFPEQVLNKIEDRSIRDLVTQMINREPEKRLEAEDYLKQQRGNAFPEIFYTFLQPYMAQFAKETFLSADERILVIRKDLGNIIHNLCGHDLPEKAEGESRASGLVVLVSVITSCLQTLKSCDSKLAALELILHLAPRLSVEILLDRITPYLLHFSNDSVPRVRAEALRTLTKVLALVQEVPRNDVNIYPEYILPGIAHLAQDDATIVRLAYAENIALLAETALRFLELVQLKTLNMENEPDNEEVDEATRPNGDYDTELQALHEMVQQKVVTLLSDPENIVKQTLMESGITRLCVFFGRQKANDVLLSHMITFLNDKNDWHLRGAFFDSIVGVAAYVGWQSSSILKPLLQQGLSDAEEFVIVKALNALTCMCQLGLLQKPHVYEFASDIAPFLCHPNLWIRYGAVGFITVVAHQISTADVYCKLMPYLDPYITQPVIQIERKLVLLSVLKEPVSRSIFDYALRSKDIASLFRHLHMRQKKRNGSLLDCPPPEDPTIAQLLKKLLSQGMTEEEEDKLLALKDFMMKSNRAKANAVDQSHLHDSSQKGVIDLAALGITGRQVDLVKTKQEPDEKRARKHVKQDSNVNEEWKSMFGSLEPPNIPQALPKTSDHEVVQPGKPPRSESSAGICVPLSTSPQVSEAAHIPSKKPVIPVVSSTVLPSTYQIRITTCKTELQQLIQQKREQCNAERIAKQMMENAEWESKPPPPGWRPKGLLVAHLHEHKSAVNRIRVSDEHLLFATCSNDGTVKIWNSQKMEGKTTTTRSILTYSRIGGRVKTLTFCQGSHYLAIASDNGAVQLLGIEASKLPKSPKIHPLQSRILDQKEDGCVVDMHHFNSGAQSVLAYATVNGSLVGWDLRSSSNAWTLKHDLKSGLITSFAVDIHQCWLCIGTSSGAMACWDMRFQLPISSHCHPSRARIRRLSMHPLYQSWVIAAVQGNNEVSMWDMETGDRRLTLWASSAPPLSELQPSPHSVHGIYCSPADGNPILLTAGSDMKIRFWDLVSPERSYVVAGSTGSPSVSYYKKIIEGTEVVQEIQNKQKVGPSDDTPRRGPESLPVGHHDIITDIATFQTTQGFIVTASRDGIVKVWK
Experimental: To perform in vitro Vps34 lipid kinase assay, the Vps34 immunocomplex was washed with PBS containing 1% NP-40 three times, with PBS containing 100 mM Tris (pH 7.4) containing 500 mM LiCl three times, and with TNE buffer (10 mM Tris (pH 7.4), 100 mM NaCl and 1 mM EDTA) twice, then 2 mg/ml of […] and 10 μCi ^32P-γ-ATP (PerkinElmer) were added to TNE buffer. The reaction was terminated by adding 20 μl of 8 N HCl and lipid was extracted with 160 μl of CHCl3:MeOH (1:1). ^32P-PI(3)P was separated on a thin layer chromatography plate (EMD Chemicals Inc.) using CHCl3:MeOH:NH4OH:water (60:47:2:11.3) as a solvent, followed by measuring Vps34 activity by radiograph. The activity of Vps34 was quantified by standardizing the Vps34 amount included in the immune precipitate determined by quantification of Western blotting. To measure the amount of intracellular PI(3)P, ELISA-format assay was performed according to the manufacturer's protocol, leading to quantification of the amount of PI(3)P from nonlinear fitting of the PI(3)P standard. All quantificative data was presented as mean±standard deviation of the values obtained from at least three independent experiments performed separately. Statistical significance was analyzed by student's t-test ([…]. **p≤0.01).
Particularly, MEF cells were cultured in the absence of FBS for overnight. On the next day, the cells were cultured in leucine-free DMEM for 2 hours. Anti-Atg14L antibody was added in the cell lysate thereto, followed by immunoprecipitation to eliminate Atg14L from the cell lysate. Then, anti-Vps34 antibody was added thereto, followed by immunoprecipitation of Vps34. The Vps34 immune complex was placed in TNE buffer supplemented with 2 mg/ml of PI, 10 μCi ^32P-γ-ATP (PerkinElmer) and 3.75 μg of GST protein in the presence or absence of leucine for 20 minutes at 30° C. […] All the quantification data was presented as mean±standard deviation of the values obtained from at least three independent experiments performed separately. Statistical significance was analyzed by student's t-test (*p≤0.05. **p≤0.01).

[3] = test system: S6K1 phosphorylation (mTORC1 activity); test: Western blotting of phosphorylated S6K1 in knock-down HEK293 cells with exogenous phosphatidic acid; assay type: cell-based; details: 100 μM PA, amino acid stimulation
Experimental: Particularly, HEK293 cells were transducted with lentivirus expressing LRS shRNA (shLRS) or scrambled sequence shRNA (control). The cells were cultured in DMEM supplemented with 10% fetal bovine serum (FBS) in a 37° C., 5% CO2 incubator for 3 days. As for the LRS shRNA, shLRS-1 (TRCN0000290440) or shLRS-2 (TRCN0000290511) was used. As for the scrambled sequence shRNA, the sRNA previously described (Yoon, et al., J Cell Biol., 2011 195(3); 435-447) was used. Lentivirus packaging and transduction were performed according to the methods described in the following paper (Sun, et al., Proc Natl Acad Sci USA., 2008, 105(24); 8286-8291). […] The cell lysate was analyzed by Western blotting according to the conventional method. The intensity of the bands obtained by Western blotting was quantified by measuring the X ray film image density using Image J software.
Particularly, HEK293 cells were transduced with shLRS, shRagD lentivirus or lentivirus expressing scrambled sequence shRNA (control), and then stimulated with amino acids by the same manner as described in Example <1-1> in the presence or absence of 100 μM phosphatidic acid (PA), a product of PLD1. Lysates of the cells were analyzed by Western blotting according to the method conventionally performed.

[4] = test system: tibialis anterior (TA); test: Muscle regeneration after BaCl2 induced muscle injury in AAV-UNE-L injected tibialis anterior; assay type: in vivo, BL6 mice; details: expressed from AAV-UNE-L in TA, vs AAV-GFP contralateral
Experimental: Particularly, AAV-UNE-L was injected into the left tibialis anterior (TA) of 10-week-old BL6 mice and AAV-GFP was injected into the right tibialis anterior (TA) of 10-week-old BL6 mice, and after 7 weeks, BaCl2 (prepared in saline at the concentration of 1.2% wt/vol: 50 μl) was injected to induce muscle injury (Sun et al., 2011, J. Cell Biol. 192, 69-81). 7 days later, the mice were sacrificed and the tibialis anterior muscles were separated and fixed in 10% paraformaldehyde, followed by embedding in paraffin. The section was performed to the thickness of 10 μm, and the prepared sections were placed on non-coated slides, followed by staining with hematoxylin and eosin (H&E). The stained slides were observed through a 10× dry objective lens of a microscope (Olympus CKX3-Houn Microscope). The stained images were photographed with 24-bit image and the regenarating myofiber cross section area (CSA) was measured by image J. CSA was measured only in the myofibers showing the characteristics of regenerating myofiber with the nucleus in the center.

[5] = test system: C2C12 cells; test: MHC/DAPI immunostaining of differentiated C2C12 cells (differentiation index, fusion index, myotube size); assay type: cell-based, mouse; details: given as NP-UNE-L, three days differentiation, FIG. 15
Experimental: Particularly, to investigate the role of the UNE-L domain of LRS, NP-UNE-L was constructed by binding the UNE-L domain of LRS to nanoparticles (NP) through the conventional method.
C2C12 cells, the mouse muscle cells, were maintained in DMEM supplemented with 4.5 g/l of glucose and 10% FBS in a 37° C., 7.5% CO2 incubator. To induce myogenesis, the cells were cultured on a plate coated with 0.2% gelatin until 100% confluence and the culture medium was replaced with the differentiation-inducing medium containing 2% horse serum. The culture medium was replaced every day for 3 days. During differentiation for three days, the differentiation-inducing medium treated group, the differentiation-inducing medium and NP-UNE-L treated group, and the differentiation-inducing medium and NP treated group were compared.
After the differentiation of C2C12 cells for three days, Western blotting was performed with the cell lysate according to the conventional method. To compare the differentiation level of C2C12 cells, C2C12 cells were fixed and immunostained with MHC, a myocyte differentiation marker, and 4′,6-diamidino-2-phenylindole (DAPI), a cell nucleus marker (Yoon et al. 2013 Molecular biology of the cell, 24(23) 3754-3763). […] The differentiation index was calculated as the percentage of nuclei in the myotubes stained with MHC and the fusion index was calculated as the percentage of nuclei in the myotubes with two or more nuclei stained with MHC. The myotube size was calculated as the number of nuclei in the myotube stained with MHC.

[6] = test system: tibialis anterior (TA) muscles; test: Muscle regeneration after BaCl2 induced muscle injury, NP-UNE-L injected with BaCl2; assay type: in vivo, BL6 mice; details: given as NP-UNE-L with BaCl2 into TA, vs NP in contralateral TA, 7 days, FIG. 16
Experimental: Particularly, BaCl2 (prepared in saline at the concentration of 1.2% wt/vol: 50 μl) was injected into the tibialis anterior (TA) muscles of 10-week-old BL6 mice to induce muscle injury (Sun et al., 2011, J. Cell Biol. 192, 69-81). NP-UNE-L was injected with BaCl2 on the left side and NP was injected with BaCl2 on the right side. 7 days later, the mice were sacrificed and the tibialis anterior muscles were separated and placed in 2-methylbutane which was coldly prepared in liquid nitrogen, followed by embedding in TBS tissue freezing medium. Cryosection was performed at −20° C. to the thickness of 10 μm by using a cryostat (Microm HM550; Thermo Fisher Scientific). The prepared sections were placed on non-coated slides, followed by staining with hematoxylin and eosin (H&E). The stained slides were observed through a 10× dry objective lens of a microscope (DMI 4000B; Leica). The stained images were photographed with a 24-bit image camera (RETIGA EXi; Q Imaging) and the regenarating myofiber cross section area (CSA) was measured by image J. CSA was measured only in the myofibers showing the characteristics of regenerating myofiber with the nucleus in the center.

Molecule: C[C@@H]1COCCN1c1cc(=O)n2c(n1)N(Cc1cncc(Cl)c1)[C@H](C(F)(F)F)CC2 [SAR405]
S6K1 phosphorylation increased by LRS overexpression ([1]; HEK293 cells co-transfected with Myc-LRS and Myc-S6K1, SAR405 3 μM, FIG. 3C): reduced
S6K1 phosphorylation induced by total amino acids ([1]; HEK293 cells, FIG. 3B): reduced
concentration at which S6K1 phosphorylation was completely inhibited ([1]; HEK293 cells, tested at 0.1, 0.3, 1, 3 and 10 μM, amino acid stimulation): 3 µM

activity of Vps34 compared to the GST control ([2]; purified protein added to Vps34 immune complex): about 3 times
activity of Vps34 with leucine stimulation ([2]; purified protein added to Vps34 immune complex, in the presence of leucine): further increased
Molecule: GST-LRS protein: purified GST-LRS (leucyl-tRNA synthetase) protein expressed in E. coli BL21

activation of Vps34 ([2]; regardless of the presence or absence of leucine stimulation): did not induce the activation of Vps34
Molecule: LRS mutation (F50A/Y52A): leucine binding deficient mutant of LRS

Molecule: phosphatidic acid [PA]
amount of phosphorylated S6K1 ([3]; LRS knocked-down, FIG. 11): increased again
amount of S6K1 phosphorylated ([3]; both LRS and RagD knocked-down): partially increased

B1: UNE-L domain of LRS: UNE-L domain of leucyl-tRNA synthetase C-terminus, polypeptide of the amino acid sequence SEQ. ID. NO: 1 (protein, listed as Homo sapiens)
chain: PGVSVSLVNPQPSNGHFSTKIEIRQGDNCDSIIRRLMKMNRGIKDLSKVKLMRFDDPLLGPRRVPVLGKEYTEKTPISEHAVFNVDLMSKKIHLTENGIRVDIGDTIIYLVH
CSA of the muscle fibers generated during muscle regeneration ([4]; BaCl2 after 7 weeks, 7 days later, FIGS. 18A and 18B): increased
mean value of CSA ([4]; FIG. 18C): increased significantly
differentiation index of C2C12 cells [5]: increased
fusion index of C2C12 cells [5]: increased
myotube size [5]: increased
CSA of the muscle fibers generated during muscle regeneration [6]: increased
